The target in the test is T1, CD33蛋白 (SEQ ID NO:27) on CHO-K1-CD33 / A375-CD33 cells (Homo sapiens (Human), UniProt P20138 18-364).
T1 construct: also called CHO-K1-CD33细胞; A375-CD33细胞
Nature of the test: flow cytometry on CHO-K1-CD33 cells, Alexa-647 anti-human Fc.

T1 sequence (P20138 18-364 limits assumed): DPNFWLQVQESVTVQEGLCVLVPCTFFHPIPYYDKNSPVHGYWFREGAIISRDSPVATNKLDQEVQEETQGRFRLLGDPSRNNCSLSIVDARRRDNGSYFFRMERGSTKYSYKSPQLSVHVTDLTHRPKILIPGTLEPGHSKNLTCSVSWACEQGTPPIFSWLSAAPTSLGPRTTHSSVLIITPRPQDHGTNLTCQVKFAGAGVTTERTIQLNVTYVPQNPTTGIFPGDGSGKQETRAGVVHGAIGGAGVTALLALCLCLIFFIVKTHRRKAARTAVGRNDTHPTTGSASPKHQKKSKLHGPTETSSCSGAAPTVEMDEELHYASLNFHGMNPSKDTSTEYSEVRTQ

B1: CD3×CD33双特异性抗体 (bispecific antibody, human IgG1, kappa, L234A L235A)
chain: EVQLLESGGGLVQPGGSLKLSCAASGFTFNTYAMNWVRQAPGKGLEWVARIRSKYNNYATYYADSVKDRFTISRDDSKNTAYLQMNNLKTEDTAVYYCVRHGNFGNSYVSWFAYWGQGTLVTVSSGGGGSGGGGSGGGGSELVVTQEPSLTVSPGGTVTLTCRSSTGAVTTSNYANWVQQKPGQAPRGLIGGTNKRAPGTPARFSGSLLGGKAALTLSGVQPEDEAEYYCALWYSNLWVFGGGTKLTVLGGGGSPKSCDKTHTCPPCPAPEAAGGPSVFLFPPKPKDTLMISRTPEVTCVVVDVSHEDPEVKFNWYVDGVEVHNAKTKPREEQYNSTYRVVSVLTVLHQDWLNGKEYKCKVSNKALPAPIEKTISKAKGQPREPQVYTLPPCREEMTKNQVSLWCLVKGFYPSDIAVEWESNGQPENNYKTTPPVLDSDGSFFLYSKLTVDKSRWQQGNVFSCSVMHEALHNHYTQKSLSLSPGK
heavy: EVQLVQSGAEVKKPGSSVKVSCKASGYTITDSNIHWVRQAPGQSLEWIGYIYPYNGGTDYNQKFKNRATLTVDNPTNTAYMELSSLRSEDTAFYYCVNGNPWLAYWGQGTLVTVSSASTKGPSVFPLAPSSKSTSGGTAALGCLVKDYFPEPVTVSWNSGALTSGVHTFPAVLQSSGLYSLSSVVTVPSSSLGTQTYICNVNHKPSNTKVDKKVEPKSCDKTHTCPPCPAPEAAGGPSVFLFPPKPKDTLMISRTPEVTCVVVDVSHEDPEVKFNWYVDGVEVHNAKTKPREEQYNSTYRVVSVLTVLHQDWLNGKEYKCKVSNKALPAPIEKTISKAKGQPREPQVCTLPPSREEMTKNQVSLSCAVKGFYPSDIAVEWESNGQPENNYKTTPPVLDSDGSFFLVSKLTVDKSRWQQGNVFSCSVMHEALHNHYTQKSLSLSPGK
light: DIQLTQSPSTLSASVGDRVTITCRASESLDNYGIRFLTWFQQKPGKAPKLLMYAASNQGSGVPSRFSGSGSGTEFTLTISSLQPDDFATYYCQQTKEVPWSFGQGTKVEVKRTVAAPSVFIFPPSDEQLKSGTASVVCLLNNFYPREAKVQWKVDNALQSGNSQESVTEQDSKDSTYSLSSTLTLSKADYEKHKVYACEVTHQGLSSPVTKSFNRGEC
notes: Fc is human IgG1 with L234A/L235A; also called 抗体CD3×CD33; CD3×CD33双特异抗体
As to B1, the binding result was “binds”.

For the origin of these results see CN115368464A (HEFEI TIANGANG IMMUNOLOGY PHARMACEUTICAL CO LTD, dated 2022).
